The target in test [1] is H2A-H2B histone dimer from Drosophila melanogaster (Drosophila melanogaster, UniProt P84051 2-121; P02283 2-123). The test can be described thus: ITC.
The target of test [2] is (H3-H4)2 histone tetramer from Drosophila melanogaster (Drosophila melanogaster, UniProt P02299 2-136; P84040 2-103). Kind of test: ITC. (In general: Isothermal titration calorimetry measures the heat released or taken up as one component is titrated into another.)

This note sets out measurements from PMC6101569 (Nucleic Acids Research, 2018).

For orientation: Kd means a measure of binding affinity in units of concentration.

B1: APLF acidic domain (APLF^AD), Homo sapiens APLF residues 450-511, wild type (domain or fragment)
chain: DEDNDNVGQPNEYDLNDSFLDDEEEDYEPTDEDSDWEPGKEDEEKEDVEELLKEAKRFMKRK
Turning to B1, the Kd in test [1] is 940 nM; in test [2], 3810 nM.
